B1: UBN1(92–175) E147A (protein)
chain: NDEEKERHKVEALARKFEEKYGGKKRRKDRIQDLIDMGYGYDESDSFIDNSEAYDALVPASLTTKYGGFYINSGTLQFRQASES
B2: UBN1(92–175) L148A (protein)
chain: NDEEKERHKVEALARKFEEKYGGKKRRKDRIQDLIDMGYGYDESDSFIDNSEAYDEAVPASLTTKYGGFYINSGTLQFRQASES
B3: UBN1(92–175) L125A (protein)
chain: NDEEKERHKVEALARKFEEKYGGKKRRKDRIQDAIDMGYGYDESDSFIDNSEAYDELVPASLTTKYGGFYINSGTLQFRQASES
B4: UBN1(92–175) M128A (protein)
chain: NDEEKERHKVEALARKFEEKYGGKKRRKDRIQDLIDAGYGYDESDSFIDNSEAYDELVPASLTTKYGGFYINSGTLQFRQASES
B5: UBN1(92–175) I126A (protein)
chain: NDEEKERHKVEALARKFEEKYGGKKRRKDRIQDLADMGYGYDESDSFIDNSEAYDELVPASLTTKYGGFYINSGTLQFRQASES
B6: UBN1(92–175) Y145A (protein)
chain: NDEEKERHKVEALARKFEEKYGGKKRRKDRIQDLIDMGYGYDESDSFIDNSEAADELVPASLTTKYGGFYINSGTLQFRQASES
B7: UBN1(92–175) I122A (protein)
chain: NDEEKERHKVEALARKFEEKYGGKKRRKDRAQDLIDMGYGYDESDSFIDNSEAYDELVPASLTTKYGGFYINSGTLQFRQASES
B8: UBN1(92–175) G131A (protein)
chain: NDEEKERHKVEALARKFEEKYGGKKRRKDRIQDLIDMGYAYDESDSFIDNSEAYDELVPASLTTKYGGFYINSGTLQFRQASES
B9: UBN1(92–175) D146A (protein)
chain: NDEEKERHKVEALARKFEEKYGGKKRRKDRIQDLIDMGYGYDESDSFIDNSEAYAELVPASLTTKYGGFYINSGTLQFRQASES
B10: UBN1(92–175) Q123A (protein)
chain: NDEEKERHKVEALARKFEEKYGGKKRRKDRIADLIDMGYGYDESDSFIDNSEAYDELVPASLTTKYGGFYINSGTLQFRQASES
B11: UBN1(92–175) D124A (protein)
chain: NDEEKERHKVEALARKFEEKYGGKKRRKDRIQALIDMGYGYDESDSFIDNSEAYDELVPASLTTKYGGFYINSGTLQFRQASES
B12: UBN1(92–175) G129A (protein)
chain: NDEEKERHKVEALARKFEEKYGGKKRRKDRIQDLIDMAYGYDESDSFIDNSEAYDELVPASLTTKYGGFYINSGTLQFRQASES
B13: UBN1(92–175) E143A (protein)
chain: NDEEKERHKVEALARKFEEKYGGKKRRKDRIQDLIDMGYGYDESDSFIDNSAAYDELVPASLTTKYGGFYINSGTLQFRQASES
B14: UBN1(92–175) (domain or fragment)
chain: NDEEKERHKVEALARKFEEKYGGKKRRKDRIQDLIDMGYGYDESDSFIDNSEAYDELVPASLTTKYGGFYINSGTLQFRQASES
B15: UBN1(92–175) Y130A (protein)
chain: NDEEKERHKVEALARKFEEKYGGKKRRKDRIQDLIDMGAGYDESDSFIDNSEAYDELVPASLTTKYGGFYINSGTLQFRQASES
B16: UBN1(92–175) A144I (protein)
chain: NDEEKERHKVEALARKFEEKYGGKKRRKDRIQDLIDMGYGYDESDSFIDNSEIYDELVPASLTTKYGGFYINSGTLQFRQASES
B17: UBN1(92–175) S137A (domain or fragment)
chain: NDEEKERHKVEALARKFEEKYGGKKRRKDRIQDLIDMGYGYDESDAFIDNSEAYDELVPASLTTKYGGFYINSGTLQFRQASES
B18: UBN1(92–175) D127A (protein)
chain: NDEEKERHKVEALARKFEEKYGGKKRRKDRIQDLIAMGYGYDESDSFIDNSEAYDELVPASLTTKYGGFYINSGTLQFRQASES
B19: UBN1(122–148) peptide (peptide)
peptide: IQDLIDMGYGYDESDSFIDNSEAYDEL
B20: UBN1(122–175) (domain or fragment)
chain: not shown
B21: UBN1(92–148) (domain or fragment)
chain: NDEEKERHKVEALARKFEEKYGGKKRRKDRIQDLIDMGYGYDESDSFIDNSEAYDEL

The first assay has as its target T1, H3.3/H4 (human | X. laevis, UniProt P84243 1-136; P62799 1-103). Kind of assay: FP.
Molecule B1 had an IC50 of 22.9 µM. The same measure, in the same setting: the value for B2 was 19.6 µM; that for B3 was 15.1 µM.

Molecule B4 yielded an IC50 of 22.6 µM. Same read-out and setting: the value for B5 was 13.8 µM; that for B6 was 16.4 µM; that for B7 was 16.9 µM. Turning to B8, the midpoint of inhibition, the IC50, lay at 19.9 µM. Same read-out and setting: the value for B9 was 23 µM; that for B10 was 13.8 µM.

B11 displayed a concentration for half-maximal inhibition (IC50) of 19.6 µM. Still for that read-out and setting: the value for B12 was 67.8 µM; that for B13 was 29.3 µM. Still for that read-out and setting: the value for B14 was 16.6 µM; that for B15 was 14.4 µM; that for B16 was 16.3 µM.

Take B17: the midpoint of inhibition, the IC50, lay at 16.2 µM. For B18, half-maximal inhibition (IC50) was put at 21.1 µM.

A further assay has as its target T1, H3.3/H4. Kind of assay: FP. This is another data set of the same source.
Molecule B19 gave a 50% inhibitory concentration (IC50) of 46.4 µM.

For another assay, the target named is T1, H3.3/H4. Kind of assay: ITC.
Molecule B20 yielded a dissociation constant Kd of 14.6 µM.

Consider B21, for which binding was characterised by a dissociation constant (Kd) of 16.5 µM.

For a further assay, the target named is T1, H3.3/H4. Kind of assay: ITC. This is another data set of the same source.
For B14, binding was characterised by a dissociation constant (Kd) of 6.9 µM.

A further assay concerns the target H3.3(G90M)/H4 (human | X. laevis, UniProt P62799 1-103). Kind of assay: ITC.
Consider B19, for which the Kd was found to be 115 µM.

Source of the values: publication PMC4510971 (2015).
